# Data as given in publication PMC5724578 (Biochemistry, 2017).
# Assay: Stability of EVH1 mutant in aqueous solution
# Type: physicochemical
molecule,measurement,value
"EVH1 Y39E: phosphomimetic Y39E mutant of human VASP EVH1 domain (protein, left off: His tag, end not stated, cleaved) GPGGRMSSETVICSSRATVMLYDDGNKRWLPAGTGPQAFSRVQIEHNPTANSFRVVGRKMQPDQQVVINCAIVRGVKYNQATPNFHQWRDARQVWGLNFGSKEDAAQFAAGMASALEALEG",stability in aqueous solution,stable in aqueous solution
